We go through two molecules from US20250092426, “CAS ENDONUCLEASES AND RELATED METHODS” (Flagship Pioneering Innovations VII, LLC, published 2025).

Series [1] deals with T1, CasEnd-22 (synthetic construct).
T1 chain: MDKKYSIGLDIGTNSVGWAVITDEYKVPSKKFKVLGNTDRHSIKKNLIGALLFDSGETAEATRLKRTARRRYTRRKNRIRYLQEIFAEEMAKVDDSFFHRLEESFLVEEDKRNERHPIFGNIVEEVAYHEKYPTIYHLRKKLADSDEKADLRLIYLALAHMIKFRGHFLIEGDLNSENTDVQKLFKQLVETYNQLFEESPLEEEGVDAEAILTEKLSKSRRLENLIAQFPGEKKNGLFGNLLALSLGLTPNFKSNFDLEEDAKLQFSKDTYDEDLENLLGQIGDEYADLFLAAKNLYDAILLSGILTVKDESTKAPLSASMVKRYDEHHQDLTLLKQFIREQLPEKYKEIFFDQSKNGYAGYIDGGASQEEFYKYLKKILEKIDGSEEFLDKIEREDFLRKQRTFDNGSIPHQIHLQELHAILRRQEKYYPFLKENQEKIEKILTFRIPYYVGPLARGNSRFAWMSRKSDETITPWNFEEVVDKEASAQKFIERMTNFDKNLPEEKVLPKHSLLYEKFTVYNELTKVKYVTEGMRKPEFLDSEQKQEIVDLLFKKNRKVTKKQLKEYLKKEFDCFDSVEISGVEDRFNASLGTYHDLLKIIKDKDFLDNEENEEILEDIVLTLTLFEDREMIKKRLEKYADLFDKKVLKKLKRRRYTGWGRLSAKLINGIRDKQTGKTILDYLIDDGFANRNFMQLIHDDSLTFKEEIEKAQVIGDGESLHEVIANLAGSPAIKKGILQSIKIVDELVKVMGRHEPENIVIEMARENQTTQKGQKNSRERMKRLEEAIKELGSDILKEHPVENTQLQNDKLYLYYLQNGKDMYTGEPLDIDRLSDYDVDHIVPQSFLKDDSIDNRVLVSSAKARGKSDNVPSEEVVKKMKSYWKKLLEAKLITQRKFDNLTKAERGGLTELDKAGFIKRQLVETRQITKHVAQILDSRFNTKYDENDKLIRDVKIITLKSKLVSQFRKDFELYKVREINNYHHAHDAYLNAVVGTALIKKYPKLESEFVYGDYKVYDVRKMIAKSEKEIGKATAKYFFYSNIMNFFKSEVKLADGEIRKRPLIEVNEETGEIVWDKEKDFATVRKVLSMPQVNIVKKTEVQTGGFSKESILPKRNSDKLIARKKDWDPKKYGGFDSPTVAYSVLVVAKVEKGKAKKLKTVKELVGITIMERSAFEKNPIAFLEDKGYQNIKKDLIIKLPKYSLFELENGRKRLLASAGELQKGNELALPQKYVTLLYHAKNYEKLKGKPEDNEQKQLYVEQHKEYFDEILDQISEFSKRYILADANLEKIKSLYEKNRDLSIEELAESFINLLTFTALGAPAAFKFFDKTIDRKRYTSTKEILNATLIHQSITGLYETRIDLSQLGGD
As to the kind of experiment: cell_activity; +++; K562, second nick guide SEQ 380; PAM not stated. On the procedure: The ability of the candidate endonucleases, including endonucleases 1-38 (CasEnds 1-38) (set forth in Table 1 and SEQ ID NOS: 1-38, respectively), to mediate target nucleic acid editing in cells was assessed by amplicon sequencing of the endogenous hemoglobin subunit beta (eHBB) gene, wherein the percent of amplicons displaying the intended edit is measured. The editing system is comprised of a template RNA (designed to introduce the Single Nucleotide Polymorphism), a second nick guide RNA, and a fusion protein consisting of retroviral reverse transcriptase and the individual subject Cas endonuclease.
Briefly, 250 ng of plasmid DNA encoding the subject fusion protein (containing one of the subject CasEnds), 250 ng each of plasmid DNA encoding the template RNA and the second nick guide RNA were added to 15 μL Lonza SF buffer containing 250,000 K562 cells. Nucleofection was mediated utilizing program FF-120-DA on a Lonza nucleofector. The day of nucleofection was marked as day 0. At day 3, the cells were harvested and subjected to lysis buffer treatment overnight. Genomic DNA was extracted and used for targeted amplicon sequencing to evaluate the performance of each Cas endonucleases based on their percent edit efficiencies.

The target of series [2] is T1, CasEnd-22. As to the kind of experiment: cell_activity; +++; HEK293T; PAM not stated. In outline: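 BFP-to-GFP conversion via reverse transcriptase fusion with each Cas endonuclease plus template RNA: 200 ng of each plasmid nucleofected into 250,000 BFP-expressing HEK293T cells (program DS-150). Percent GFP+ cells by flow cytometry at day 4 measured editing.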

A value given as a limit tells only on which side of the number the result lay.

B1: HBB template RNA ; HBB protospacer (ssRNA ; dsDNA)
RNA: CAUGGUGCACCUGACUCCUGGUUUUAGAGCUAGAAAUAGCAAGUUAAAAUAAGGCUAGUCCGUUAUCAACUUGAAAAAGUGGCACCGAGUCGGUGCACGGCAGACUUCUCUGCCGGAGUCAGGUGC
DNA 1: CATGGTGCACCTGACTCCTG
DNA 2: CAGGAGTCAGGTGCACCATG
On to B1, for which the activity with CasEnd-22 [1] was ≥ 100 % of reference.

B2: BFP-to-GFP template RNA ; BFP reporter protospacer (ssRNA ; dsDNA)
RNA: GCCGAAGCACUGCACGCCGUGUUUUAGAGCUAGAAAUAGCAAGUUAAAAUAAGGCUAGUCCGUUAUCAACUUGAAAAAGUGGCACCGAGUCGGUGCACCCUGACGUACGGCGUGCAGUGCUU
DNA 1: GCCGAAGCACTGCACGCCGT
DNA 2: ACGGCGTGCAGTGCTTCGGC
On to B2, for which, in the series with CasEnd-22 [2], the activity was ≥ 100 % of reference.
